Assay results as given in patent US20080206239A1 (ANTITOPE, published 2008).
Substitutions are numbered along the chain they refer to.

B1: antibody of heavy chain SEQ. ID. No. 7 and light chain SEQ. ID. No. 2 (antibody, human IgG1, V domains shown)
VH: EVQLVESGGGLVQPGGSLKLSCAASGFIFSNHWMNWVRQAPGKGLEWVAEIRSKSINSATHYAESVKGRFTISRDDSKSIVYLQMNSLKTEDTGVYYCSRNYYGSTYDYWGQGTTVTVSS
VL: DILLTQSPAILSVSPGERVSFSCRASQFVGSSIHWYQQRTNGSPRLLIKYASESMSGIPSRFSGSGSGTDFTLSINTVESEDIADYYCQQSHSWPFTFGSGTNLEVK
B2: antibody of heavy chain SEQ. ID. No. 1 and light chain SEQ. ID. No. 4 (antibody, human IgG1, V domains shown)
VH: EVKLEESGGGLVQPGGSMKLSCVASGFIFSNHWMNWVRQSPEKGLEWVAEIRSKSINSATHYAESVKGRFTISRDDSKSAVYLQMTDLRTEDTGVYYCSRNYYGSTYDYWGQGTTLTVSS
VL: DILLTQSPAILSLSPGERATLSCRASQFVGSSIHWYQQKTNQSPKLLIKYASESMSGIPSRFSGSGSGTDFTLTINSLESEDAADYYCQQSHSWPFTFGQGTNLEIK
B3: Composite Human Antibody of heavy chain SEQ. ID. No. 6 and light chain SEQ. ID. No. 4 (antibody, human IgG1, V domains shown)
VH: B1 VH with A23V
VL: B2 VL
B4: Composite Human Antibody 7/4 (antibody, human IgG1, V domains shown)
VH: B1 VH
VL: B2 VL
B5: Composite Human Antibody of heavy chain SEQ. ID. No. 6 and light chain SEQ. ID. No. 11 (antibody, human IgG1, V domains shown)
VH: B1 VH with A23V
VL: B2 VL with I10T, N41D, S80A, N103R
B6: Composite Human Antibody 7/10 (i.e. containing SEQ. ID. No.s 7 and 10) (antibody, human IgG1, V domains shown)
VH: B1 VH
VL: B2 VL with I10T, S80A, N103R
B7: Composite Human Antibody of heavy chain SEQ. ID. No. 6 and light chain SEQ. ID. No. 10 (antibody, human IgG1, V domains shown)
VH: B1 VH with A23V
VL: B2 VL with I10T, S80A, N103R
B8: Composite Human Antibody of heavy chain SEQ. ID. No. 5 and light chain SEQ. ID. No. 4 (antibody, human IgG1, V domains shown)
VH: B1 VH with A23V, S87D
VL: B2 VL
B9: Composite Human Antibody of heavy chain SEQ. ID. No. 3 and light chain SEQ. ID. No. 11 (antibody, human IgG1, V domains shown)
VH: B1 VH with A23V, N86T, S87D, K89R
VL: B2 VL with I10T, N41D, S80A, N103R
B10: primary Composite Human Antibody (heavy chain SEQ. ID. No. 3 and light chain SEQ. ID. No. 4) (antibody, human IgG1, V domains shown)
VH: B1 VH with A23V, N86T, S87D, K89R
VL: B2 VL
B11: Composite Human Antibody of heavy chain SEQ. ID. No. 3 and light chain SEQ. ID. No. 10 (antibody, human IgG1, V domains shown)
VH: B1 VH with A23V, N86T, S87D, K89R
VL: B2 VL with I10T, S80A, N103R
B12: antibody of heavy chain SEQ. ID. No. 5 and light chain SEQ. ID. No. 2 (antibody, human IgG1, V domains shown)
VH: B1 VH with A23V, S87D
VL: B1 VL
B13: Composite Human Antibody 7/9 (antibody, human IgG1, V domains shown)
VH: B1 VH
VL: B2 VL with I10T, N103R
B14: Composite Human Antibody of heavy chain SEQ. ID. No. 7 and light chain SEQ. ID. No. 11 (antibody, human IgG1, V domains shown)
VH: B1 VH
VL: B2 VL with I10T, N41D, S80A, N103R
B15: Composite Human Antibody of heavy chain SEQ. ID. No. 5 and light chain SEQ. ID. No. 11 (antibody, human IgG1, V domains shown)
VH: B1 VH with A23V, S87D
VL: B2 VL with I10T, N41D, S80A, N103R
B16: Composite Human Antibody of heavy chain SEQ. ID. No. 5 and light chain SEQ. ID. No. 9 (antibody, human IgG1, V domains shown)
VH: B1 VH with A23V, S87D
VL: B2 VL with I10T, N103R
B17: Composite Human Antibody of heavy chain SEQ. ID. No. 3 and light chain SEQ. ID. No. 9 (antibody, human IgG1, V domains shown)
VH: B1 VH with A23V, N86T, S87D, K89R
VL: B2 VL with I10T, N103R
B18: antibody of heavy chain SEQ. ID. No. 1 and light chain SEQ. ID. No. 10 (antibody, human IgG1, V domains shown)
VH: B2 VH
VL: B2 VL with I10T, S80A, N103R
B19: antibody of heavy chain SEQ. ID. No. 3 and light chain SEQ. ID. No. 2 (antibody, human IgG1, V domains shown)
VH: B1 VH with A23V, N86T, S87D, K89R
VL: B1 VL
B20: Composite Human Antibody of heavy chain SEQ. ID. No. 6 and light chain SEQ. ID. No. 9 (antibody, human IgG1, V domains shown)
VH: B1 VH with A23V
VL: B2 VL with I10T, N103R
B21: Composite Human Antibody 5/10 (antibody, human IgG1, V domains shown)
VH: B1 VH with A23V, S87D
VL: B2 VL with I10T, S80A, N103R
B22: antibody of heavy chain SEQ. ID. No. 1 and light chain SEQ. ID. No. 9 (antibody, human IgG1, V domains shown)
VH: B2 VH
VL: B2 VL with I10T, N103R
B23: antibody of heavy chain SEQ. ID. No. 6 and light chain SEQ. ID. No. 2 (antibody, human IgG1, V domains shown)
VH: B1 VH with A23V
VL: B1 VL
B24: antibody of heavy chain SEQ. ID. No. 1 and light chain SEQ. ID. No. 11 (antibody, human IgG1, V domains shown)
VH: B2 VH
VL: B2 VL with I10T, N41D, S80A, N103R

Each binder was assayed against human TNFα (human, UniProt P01375 77-233) (assay: cell-based or functional assay).
Sequence of human TNFα (P01375 77-233 limits assumed): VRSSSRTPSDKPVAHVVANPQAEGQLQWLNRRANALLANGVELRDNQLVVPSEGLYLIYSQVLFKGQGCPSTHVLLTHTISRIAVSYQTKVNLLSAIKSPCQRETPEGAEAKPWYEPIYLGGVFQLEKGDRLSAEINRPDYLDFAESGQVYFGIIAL

Ratio of Activities compared to Chimeric Antibody (fold difference, WEHI-164 protection assay at 25 ng/ml) [fold]	Binder
1.02	B1
1.51	B2
1.38	B3
1.05	B4
134	B5
0.98	B6
1.63	B7
1.28	B8
15.2	B9
2.28	B10
2.51	B11
1.24	B12
0.95	B13
106	B14
196	B15
1.32	B16
2.14	B17
1.31	B18
1.38	B19
1.77	B20
1.17	B21
1.28	B22
1.2	B23
16.9	B24
